This note sets out measurements from publication PMC7775154.

This assay concerns the target catalase (human) (UniProt P04040).
UniProt P04040, sequence (P04040 5-501): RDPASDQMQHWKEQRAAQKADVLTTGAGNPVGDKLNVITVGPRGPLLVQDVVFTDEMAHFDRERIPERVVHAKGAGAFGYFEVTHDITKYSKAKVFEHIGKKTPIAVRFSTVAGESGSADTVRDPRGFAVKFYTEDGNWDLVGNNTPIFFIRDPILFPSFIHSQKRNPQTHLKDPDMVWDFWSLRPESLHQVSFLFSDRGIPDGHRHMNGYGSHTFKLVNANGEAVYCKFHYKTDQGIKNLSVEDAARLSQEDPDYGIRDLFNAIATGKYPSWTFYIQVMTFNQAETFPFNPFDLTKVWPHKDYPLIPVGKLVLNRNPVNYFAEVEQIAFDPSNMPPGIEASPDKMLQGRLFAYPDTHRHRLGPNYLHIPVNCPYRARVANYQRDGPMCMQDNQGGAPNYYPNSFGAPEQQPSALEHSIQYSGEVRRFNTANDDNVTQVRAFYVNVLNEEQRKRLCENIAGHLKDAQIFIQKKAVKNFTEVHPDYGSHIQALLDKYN

“Aβ42 E22K (Italian type mutation, glutamic acid 22-to-lysine) (peptide)”: the H2O2 level in the blood of healthy controls after a 2 h incubation with E22K (H2O2 kit) worked out at 86.5.
